Laboratory results as given in patent US8697369B2, “Method for screening a test substance for activating a receptor associated with FGF 21 activity” (National Institute of Advanced Industrial Science and …, priority 2007, dated 2014).

Tests used:
[1] = target: T1, humanized FGFR1c (hR1c)-expressing BaF3 cells (Homo sapiens, UniProt P11362); assay: DNA synthesis in humanized FGFR1c-expressing BaF3 cells; format: cell-based; settings: humanized FGFR1c only; 10 μg/ml heparin
T1 construct: expressed in transfected cells; host or cells: BaF3 (mouse pro-B) cells; pSRalpha vector
Description: In Examples 4, 5, 6, and 7, it was shown that FGF21 reacts with FGFR1c in the presence of betaKlotho. FGFR1c, betaKlotho, FGF21, and the like, which were used in an actual experimental system, were all derived from mice used as typical mammalian models. With regard to these molecules, the homology between a human and a mouse at the amino acid sequence level is extremely high (80% in FGF21, 78% in betaKlotho, and 98% in FGFR1). As a result, naturally, there are no problems regarding the compatibility of the human with the mouse, and thus it is clear that the same results as those from a murine molecule will be obtained even using a humanized molecule. In the present example, as a precautionary measure, an experimental system using a humanized molecule was constructed to confirm such respect, and an experiment was carried out. Specifically, the humanized cDNA of FGFR1c and that of betaKlotho were prepared from a commercially available human RNA sample (Takara Bio Inc.) by PCR. FGFR1c was introduced into an expression vector having an SRalpha promoter (pSRalpha), and betaKlotho was introduced into an expression vector having a CMV promoter (pcDNA3.1; Invitrogen). […] In the presence of heparin, humanized FGF21 was added in various types of concentrations to FGFR1c-expressing cells or FGFR1c/betaKlotho-co-expressing cells, and the amount of DNA synthesized was then measured.

betaKlotho = target: T2, betaKlotho (Mus musculus, UniProt Q99N32); assay: Co-precipitation of FGF21 with soluble betaKlotho protein (anti-V5 beads, immunoblotting); format: binding; settings: presence or absence of heparin
T2 construct: a V5 tag and a His tag were added to the C-terminus of the extracellular domain of betaKlotho; made in house
T2 sequence (Q99N32 1-992): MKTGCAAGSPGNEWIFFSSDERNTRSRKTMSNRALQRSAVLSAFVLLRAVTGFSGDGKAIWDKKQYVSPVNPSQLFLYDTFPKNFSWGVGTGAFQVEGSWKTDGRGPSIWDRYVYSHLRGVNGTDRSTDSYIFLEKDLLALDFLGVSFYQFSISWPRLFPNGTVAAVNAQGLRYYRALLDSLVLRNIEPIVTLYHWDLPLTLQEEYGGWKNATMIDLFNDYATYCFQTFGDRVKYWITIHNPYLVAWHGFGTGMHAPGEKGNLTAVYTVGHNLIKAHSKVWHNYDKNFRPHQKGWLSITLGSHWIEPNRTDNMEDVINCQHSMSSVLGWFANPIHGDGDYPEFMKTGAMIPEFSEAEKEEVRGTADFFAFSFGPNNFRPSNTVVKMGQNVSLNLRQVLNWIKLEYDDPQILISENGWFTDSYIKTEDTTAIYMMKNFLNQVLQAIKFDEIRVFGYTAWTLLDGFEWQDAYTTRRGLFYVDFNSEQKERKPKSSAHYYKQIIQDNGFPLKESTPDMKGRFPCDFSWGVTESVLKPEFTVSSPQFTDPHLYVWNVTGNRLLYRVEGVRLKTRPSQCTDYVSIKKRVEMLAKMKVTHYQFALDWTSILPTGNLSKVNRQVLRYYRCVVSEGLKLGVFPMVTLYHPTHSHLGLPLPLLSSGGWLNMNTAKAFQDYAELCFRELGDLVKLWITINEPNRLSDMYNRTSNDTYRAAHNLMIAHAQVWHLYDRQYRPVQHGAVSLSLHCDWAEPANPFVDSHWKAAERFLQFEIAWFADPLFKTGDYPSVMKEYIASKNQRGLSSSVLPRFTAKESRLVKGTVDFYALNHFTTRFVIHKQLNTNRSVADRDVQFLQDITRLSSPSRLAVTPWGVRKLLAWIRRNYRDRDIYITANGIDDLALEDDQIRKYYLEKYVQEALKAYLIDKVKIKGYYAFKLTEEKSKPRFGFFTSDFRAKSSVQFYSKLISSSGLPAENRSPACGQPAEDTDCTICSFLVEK
Protocol: In the present example, the formation of a complex between betaKlotho and an FGF receptor or FGF21 was examined in a biochemical manner. Specifically, a V5 tag and a His tag were added to the C-terminus of the extracellular domain of betaKlotho in a tandem manner to prepare a soluble protein. Thereafter, the soluble betaKlotho protein was incubated with FGF21 in a test tube in the presence or absence of heparin, and betaKlotho was then precipitated using anti-V5 tag antibody-immobilized beads. Whether or not FGF21 bound to betaKlotho and was co-precipitated therewith was analyzed by an immunoblotting method.

[2] = system: undifferentiated 3T3-L1 fibroblasts; assay: GLUT1 mRNA expression in undifferentiated 3T3-L1 fibroblasts; format: cell-based; settings: various concentrations, 6 hours
Protocol: It has been reported that FGF21 allows adipocytes to increasingly express glucose transporter 1 (GLUT1). In the present example, as cultured adipocytes, there were used 3T3-L1 cells that are fibroblasts having the ability to differentiate into adipocytes by controlling culture conditions. The cells were cultured in a culture solution of a Dulbecco's modified Eagle medium (DMEM) containing 10% fetal bovine serum (FBS), so as to prepare cells maintaining an undifferentiated property as fibroblasts. The prepared cells were cultured in a test system, and they were allowed to grow to a confluent state. The cells were then left for 2 days. Thereafter, the culture solution was exchanged with DMEM as a culture solution used for differentiation induction, which comprised 10% FBS, 0.25 μM dexamethasone, 0.5 mM methyl isobutyl xanthine, and 5 μg/ml insulin. The cells were cultured for 2 days. […] The term “cells having the properties of adipocytes” is used herein to mean cells, which conduct intracellular metabolism specific to adipocytes and have cytoplasm in which large quantities of fat droplets are accumulated.
FGF21 were added in various types of concentrations to such different types of culture solutions, and the cells were further culture for 6 hours. Thereafter, RNA was extracted, and the copy number of GLUT1 was counted.

[3] = system: 3T3-L1 fibroblasts forced to express betaKlotho; assay: GLUT1 mRNA level in 3T3-L1 fibroblasts forced to express betaKlotho; format: cell-based; settings: betaKlotho expression vector; various concentrations; 6 hours
Protocol: A betaKlotho expression vector or an empty vector used as a control, into which betaKlotho cDNA had not been inserted, were introduced into 3T3-L1 fibroblasts, and FGF21 was then added in various types of concentrations to a culture solution of the 3T3-L1 fibroblasts. The obtained mixture was cultured for 6 hours. Thereafter, RNA was extracted, and the mRNA level of GLUT1 was then measured.

T1 sequence (P11362 22-822): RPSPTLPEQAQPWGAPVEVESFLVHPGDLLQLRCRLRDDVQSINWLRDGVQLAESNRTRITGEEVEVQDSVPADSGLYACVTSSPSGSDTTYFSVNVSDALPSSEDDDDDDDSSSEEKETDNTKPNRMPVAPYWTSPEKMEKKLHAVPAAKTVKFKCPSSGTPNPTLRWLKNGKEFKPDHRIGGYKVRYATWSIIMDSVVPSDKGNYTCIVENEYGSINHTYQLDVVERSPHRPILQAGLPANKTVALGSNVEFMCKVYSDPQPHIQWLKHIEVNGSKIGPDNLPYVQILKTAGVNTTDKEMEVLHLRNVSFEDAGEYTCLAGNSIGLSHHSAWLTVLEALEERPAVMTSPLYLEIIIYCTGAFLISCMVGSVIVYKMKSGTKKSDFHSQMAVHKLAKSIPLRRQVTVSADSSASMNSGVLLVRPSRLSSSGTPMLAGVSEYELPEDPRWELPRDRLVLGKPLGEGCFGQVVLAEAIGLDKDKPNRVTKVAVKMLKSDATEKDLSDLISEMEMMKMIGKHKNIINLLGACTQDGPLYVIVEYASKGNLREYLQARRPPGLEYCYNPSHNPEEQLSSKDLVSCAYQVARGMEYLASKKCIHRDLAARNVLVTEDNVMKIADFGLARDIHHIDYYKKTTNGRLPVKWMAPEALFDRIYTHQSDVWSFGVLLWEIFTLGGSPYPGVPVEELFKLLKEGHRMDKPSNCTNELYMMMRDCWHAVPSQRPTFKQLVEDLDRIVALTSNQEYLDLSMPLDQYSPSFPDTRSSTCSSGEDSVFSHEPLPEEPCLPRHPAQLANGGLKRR

FGF1: conventional FGF used as a control
amount of DNA synthesized (thymidine incorporation) [1]: promoted the DNA synthesis

B1: FGF21: fibroblast growth factor 21; mouse-derived protein used in Examples 1-7 and 10-13 (protein)
chain: AYPIPDSSPLLQFGGQVRQRYLYTDDDQDTEAHLEIREDGTVVGAAHRSPESLLELKALKPGVIQILGVKASRFLCQQPDGALYGSPHFDPEACSFRELLLEDGYNVYQSEAHGLPLRLPQKDSPNQDATSWGPVRFLPMPGLLHEPQDQAGFLPPEPPDVGSSDPLSMVEPLQGRSPSYAS
co-precipitation (binding) with soluble betaKlotho protein (betaKlotho): precipitated in the presence of betaKlotho | expression level of GLUT1 mRNA [2]: hardly changed | mRNA level of GLUT1 [3]: increased depending on the amount of FGF21
